# Patent US20070010430A1
# Assays:
# MMP-9 = assay: cell-based or functional assay
# MMP-2 = assay: cell-based or functional assay
substance,measurement,setting,value
"shark cartilage extract obtained in Section (1) of Example 1 (water extract of blue shark cartilage, ethanol precipitate)","decomposition-inhibition rate (type V collagen degradation, SDS-PAGE/western blot densitometry)",MMP-9,90%
same,"decomposition-inhibition rate (type V collagen degradation, SDS-PAGE/western blot densitometry)",MMP-2,90%
